In patent publication US10538585 (dated 2020):
Like-named read-outs stand apart in the source and are kept apart here. Blank lines part the entries; values can stand above or below the binder they belong to.

Legend:
[1] = molecular target: T1, human ANG2-RBD-Fc (human, UniProt O15123); assay: SPR
T1 chain: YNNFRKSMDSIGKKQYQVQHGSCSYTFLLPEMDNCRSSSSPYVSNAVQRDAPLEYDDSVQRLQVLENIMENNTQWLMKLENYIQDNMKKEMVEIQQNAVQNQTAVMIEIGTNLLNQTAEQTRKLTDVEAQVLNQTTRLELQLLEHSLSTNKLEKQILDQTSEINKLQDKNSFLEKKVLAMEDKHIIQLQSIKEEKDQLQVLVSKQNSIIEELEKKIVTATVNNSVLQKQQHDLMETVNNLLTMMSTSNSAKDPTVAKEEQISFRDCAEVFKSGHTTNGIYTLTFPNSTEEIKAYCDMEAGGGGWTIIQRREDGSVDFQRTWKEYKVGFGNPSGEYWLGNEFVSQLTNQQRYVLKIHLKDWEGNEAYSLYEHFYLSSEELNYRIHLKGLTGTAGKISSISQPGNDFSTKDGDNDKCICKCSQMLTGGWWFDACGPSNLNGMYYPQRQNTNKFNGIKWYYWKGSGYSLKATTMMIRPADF

[2] = molecular target: T1, human ANG2-RBD-Fc; assay: SPR
[3] = molecular target: T1, human ANG2-RBD-Fc; assay: SPR
[4] = molecular target: T1, human ANG2-RBD-Fc; assay: SPR
[5] = molecular target: T1, human ANG2-RBD-Fc; assay: SPR
[6] = molecular target: T1, human ANG2-RBD-Fc; assay: SPR
[7] = molecular target: T1, human ANG2-RBD-Fc; assay: SPR
[8] = molecular target: T2, human ANG2 (human, UniProt O15123); assay: competition, Tie2 binding inhibition (pTie2 ELISA)
T2 chain: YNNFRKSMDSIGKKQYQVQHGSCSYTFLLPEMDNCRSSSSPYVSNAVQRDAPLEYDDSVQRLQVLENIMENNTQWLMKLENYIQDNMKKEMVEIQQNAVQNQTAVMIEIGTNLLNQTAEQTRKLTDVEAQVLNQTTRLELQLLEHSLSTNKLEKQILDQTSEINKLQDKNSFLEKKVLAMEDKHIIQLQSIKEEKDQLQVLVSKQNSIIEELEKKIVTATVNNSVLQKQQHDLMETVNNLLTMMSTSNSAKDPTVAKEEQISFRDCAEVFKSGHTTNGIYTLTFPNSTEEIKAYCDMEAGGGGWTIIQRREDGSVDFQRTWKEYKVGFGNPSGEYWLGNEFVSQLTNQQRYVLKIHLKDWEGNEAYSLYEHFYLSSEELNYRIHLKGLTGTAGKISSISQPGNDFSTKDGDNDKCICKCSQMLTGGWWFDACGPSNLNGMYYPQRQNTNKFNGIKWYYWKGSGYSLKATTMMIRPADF

[9] = molecular target: T2, human ANG2; assay: competition, Tie2 binding inhibition (pTie2 ELISA)
[10] = molecular target: T1, human ANG2-RBD-Fc; assay: SPR bivalent
[11] = molecular target: T1, human ANG2-RBD-Fc; assay: SPR bivalent
[12] = molecular target: T2, human ANG2; assay: competition, Tie2 binding inhibition (pTie2 ELISA)

B1: 0033 (antibody, V domains shown)
VH: not shown
VL: SYVLTQPPSVSVAPGQTARITCGGNNIGSKSVHWYQQKPGQAPVLVVYDDSDRPSGIPERFSGSNSGNTATLTISRVEAGDEADYYCQVWDSSSDHWVFGGGTKLTVLS
Kd [1]: 3 nM

B4: 0017 (antibody, V domains shown)
VH: not shown
VL: SYVLTQPPSVSVAPGQTARITCGGNNIGSKSVHWYQQKPGQAPVLVVYDDSDRPSGIPERFSGSNSGNTATLTISRVEAGDEADYYCQVWDSSSDHWVFGGGTKLTVLS
Kd [4]: 12 nM

B5: 0027 (antibody, V domains shown)
VH: not shown
VL: SYVLTQPPSVSVAPGQTARITCGGNNIGSKSVHWYQQKPGQAPVLVVYDDSDRPSGIPERFSGSNSGNTATLTISRVEAGDEADYYCQVWDSSSDHWVFGGGTKLTVLS
Kd [1]: 69 nM

B8: 0163 ANG2 arm (antibody, V domains shown)
VH: not shown
VL: QPGLTQPPSVSVAPGQTARITCGGNNIGSKSVHWYQQKPGQAPVLVVYDTSDRPSGIPERFSGSNSGNTATLTISRVEAGDEADYYCQVWDSSSDHYVFGTGTKVTVLS
Kd [6]: 4 nM

B9: 0075 (antibody, V domains shown)
VH: not shown
VL: SYVLTQPPSVSVAPGQTARITCGGNNIGSKSVHWYQQKPGQAPVLVVYDTSDRPSGIPERFSGSNSGNTATLTISRVEAGDEADYYCQVWDSSSDHWVFGGGTKLTVLS
Kd [7]: 14 nM | Kd [3]: 14 nM | EC50 [8]: 39 nM

B10: 0166 ANG2 arm (antibody, V domains shown)
VH: not shown
VL: SYVLTQPPSVSVAPGQTARITCGGNNIGSKSVHWYQQKPGQAPVLVVYDTSDRPSGIPERFSGSNSGNTATLTISRVEAGDEADYYCQVWDSSSDHWVFGGGTKLTVLS
Kd [6]: 49 nM

B11: 0060 (antibody, V domains shown)
VH: not shown
VL: SYVLTQPPSVSVAPGQTARITCGGNNIGSKSVHWYQQKPGQAPVLVVYDTSDRPSGIPERFSGSNSGNTATLTISRVEAGDEADYYCQVWDSSSDHWVFGGGTKLTVLS
Kd [5]: 21 nM

B13: 0155 (antibody, V domains shown)
VH: not shown
VL: QPGLTQPPSVSVAPGQTARITCGGNNIGSKSVHWYQQKPGQAPVLVVYDTSDRPSGIPERFSGSNSGNTATLTISRVEAGDEADYYCQVWDSSSDHYVFGTGTKVTVLS
Kd [2]: 43 nM

B14: 0026 (antibody, V domains shown)
VH: not shown
VL: SYVLTQPPSVSVAPGQTARITCGGNNIGSKSVHWYQQKPGQAPVLVVYDDSDRPSGIPERFSGSNSGNTATLTISRVEAGDEADYYCQVWDSSSDHWVFGGGTKLTVLS
Kd [4]: 18 nM

B18: 0099 (antibody, V domains shown)
VH: not shown
VL: SYVLTQPPSVSVAPGQTARITCGGNNIGSKSVHWYQQKPGQAPVLVVYDDSDRPSGIPERFSGSNSGNTATLTISRVEAGDEADYYCQVWDSSSDHWVFGGGTKLTVLS
Kd [10]: 0.004 nM | Kd [11]: 0.004 nM | EC50 [12]: 3.2 nM

B19: 0025 (antibody, V domains shown)
VH: not shown
VL: SYVLTQPPSVSVAPGQTARITCGGNNIGSKSVHWYQQKPGQAPVLVVYDDSDRPSGIPERFSGSNSGNTATLTISRVEAGDEADYYCQVWDSSSDHWVFGGGTKLTVLS
Kd [4]: 38 nM

B21: 0040 (antibody, V domains shown)
VH: not shown
VL: SYVLTQPPSVSVAPGQTARITCGGNNIGSKSVHWYQQKPGQAPVLVVYDDSDRPSGIPERFSGSNSGNTATLTISRVEAGDEADYYCQVWDSSSDHWVFGGGTKLTVLS
Kd [5]: 23 nM

B22: 0057 (antibody, V domains shown)
VH: not shown
VL: SYVLTQPPSVSVAPGQTARITCGGNNIGSKSVHWYQQKPGQAPVLVVYDDSDRPSGIPERFSGSNSGNTATLTISRVEAGDEADYYCQVWDSSSDHWVFGGGTKLTVLS
Kd [5]: 29 nM

B23: 0090 (antibody)
chain 1: not shown
chain 2: SYVLTQPPSVSVAPGQTARITCGGNNIGSKSVHWYQQKPGQAPVLVVYDTSDRPSGIPERFSGSNSGNTATLTISRVEAGDEADYYCQVWDSSSDHWVFGGGTKLTVLSSASTKGPSVFPLAPSSKSTSGGTAALGCLVKDYFPEPVTVSWNSGALTSGVHTFPAVLQSSGLYSLSSVVTVPSSSLGTQTYICNVNHKPSNTKVDKKVEPKSC
Kd [7]: 1 nM | Kd [3]: 1 nM | EC50 [8]: 7 nM

B24: 0100 (antibody)
chain 1: not shown
chain 2: SYVLTQPPSVSVAPGQTARITCGGNNIGSKSVHWYQQKPGQAPVLVVYDTSDRPSGIPERFSGSNSGNTATLTISRVEAGDEADYYCQVWDSSSDHWVFGGGTKLTVLSSASTKGPSVFPLAPSSKSTSGGTAALGCLVKDYFPEPVTVSWNSGALTSGVHTFPAVLQSSGLYSLSSVVTVPSSSLGTQTYICNVNHKPSNTKVDKKVEPKSC
Kd [10]: 0.008 nM | Kd [11]: 0.008 nM | EC50 [12]: 3.2 nM

B25: 0165 ANG2 arm (antibody)
chain 1: not shown
chain 2: SYVLTQPPSVSVAPGQTARITCGGNNIGSKSVHWYQQKPGQAPVLVVYDTSDRPSGIPERFSGSNSGNTATLTISRVEAGDEADYYCQVWDSSSDHWVFGGGTKLTVLSSASTKGPSVFPLAPSSKSTSGGTAALGCLVKDYFPEPVTVSWNSGALTSGVHTFPAVLQSSGLYSLSSVVTVPSSSLGTQTYICNVNHKPSNTKVDKKVEPKSC
Kd [6]: 4 nM

The next lines start with the values.

Kd [2]: 5 nM
B2: 0156 (antibody, V domains shown)
VH: not shown
VL: QPGLTQPPSVSVAPGQTARITCGGNNIGSKSVHWYQQKPGQAPVLVVYDTSDRPSGIPERFSGSNSGNTATLTISRVEAGDEADYYCQVWDSSSDHYVFGTGTKVTVLS

Kd [3]: 16 nM
B3: 0074 (antibody, V domains shown)
VH: not shown
VL: SYVLTQPPSVSVAPGQTARITCGGNNIGSKSVHWYQQKPGQAPVLVVYDDSDRPSGIPERFSGSNSGNTATLTISRVEAGDEADYYCQVWDSSSDHWVFGGGTKLTVLS

Kd [1]: 143 nM
B6: 0028 (antibody, V domains shown)
VH: not shown
VL: SYVLTQPPSVSVAPGQTARITCGGNNIGSKSVHWYQQKPGQAPVLVVYDDSDRPSGIPERFSGSNSGNTATLTISRVEAGDEADYYCQVWDSSSDHWVFGGGTKLTVLS

Kd [5]: 18 nM
B7: 0061 (antibody, V domains shown)
VH: not shown
VL: SYVLTQPPSVSVAPGQTARITCGGNNIGSKSVHWYQQKPGQAPVLVVYDTSDRPSGIPERFSGSNSGNTATLTISRVEAGDEADYYCQVWDSSSDHWVFGGGTKLTVLS

Kd [5]: 1 nM | Kd [7]: 1 nM | EC50 [9]: 5.4 nM
B12: 0041 (antibody, V domains shown)
VH: not shown
VL: SYVLTQPPSVSVAPGQTARITCGGNNIGSKSVHWYQQKPGQAPVLVVYDDSDRPSGIPERFSGSNSGNTATLTISRVEAGDEADYYCQVWDSSSDHWVFGGGTKLTVLS

Kd [5]: 21 nM
B15: 0058 (antibody, V domains shown)
VH: not shown
VL: SYVLTQPPSVSVAPGQTARITCGGNNIGSKSVHWYQQKPGQAPVLVVYDDSDRPSGIPERFSGSNSGNTATLTISRVEAGDEADYYCQVWDSSSDHWVFGGGTKLTVLS

Kd [10]: 0.007 nM | Kd [11]: 0.007 nM | EC50 [12]: 3 nM
B16: 0101 (antibody, V domains shown)
VH: not shown
VL: SYVLTQPPSVSVAPGQTARITCGGNNIGSKSVHWYQQKPGQAPVLVVYDTSDRPSGIPERFSGSNSGNTATLTISRVEAGDEADYYCQVWDSSSDHWVFGGGTKLTVLS

Kd [6]: 39 nM
B17: 0164 ANG2 arm (antibody, V domains shown)
VH: not shown
VL: QPGLTQPPSVSVAPGQTARITCGGNNIGSKSVHWYQQKPGQAPVLVVYDTSDRPSGIPERFSGSNSGNTATLTISRVEAGDEADYYCQVWDSSSDHYVFGTGTKVTVLS

Kd [5]: 4 nM
B20: 0042 (antibody, V domains shown)
VH: not shown
VL: SYVLTQPPSVSVAPGQTARITCGGNNIGSKSVHWYQQKPGQAPVLVVYDDSDRPSGIPERFSGSNSGNTATLTISRVEAGDEADYYCQVWDSSSDHWVFGGGTKLTVLS
